Data published in patent US20240287165A1 (GENERAL HOSPITAL, published 2024).
Where a chain is given by its changes, count along the chain named. Like-named read-outs stand apart in the source and are kept apart here. Values belong to the molecule of their own block, whether it stands above or below them.

Tests used:
[1] = target: wild type ApoE peptide KLH-…-CONH2 (human); test: ELISA, negative control
[2] = target: full-length ApoE3ch (ApoE3 Christchurch R136S) mutant recombinant protein (His-tagged) (human) (UniProt P02649); test: ELISA, negative control
[3] = target: full-length wild type human ApoE3 recombinant protein (His-tagged) (human) (UniProt P02649); test: ELISA, negative control
[4] = target: ApoEch peptide KLH-…-CONH2 (human); test: ELISA, negative control
[5] = target: T1, C-terminal domain ApoE3ch mutant recombinant protein (amino acids 125 to 299) (human, UniProt P02649 143-317); test: ELISA, His-tagged ApoE protein on Ni-NTA plate, antibody diluted 1:1000 to 1:32000, anti-mouse HRP, absorbance 450 nm; x axis (printed 'Antibody Concentation') counts the dilution factor
T1 construct: also called C-terminal ApoE3ch mutant protein; APOE3 mutant c terminal protein; not shown: histidine tag
T1 chain: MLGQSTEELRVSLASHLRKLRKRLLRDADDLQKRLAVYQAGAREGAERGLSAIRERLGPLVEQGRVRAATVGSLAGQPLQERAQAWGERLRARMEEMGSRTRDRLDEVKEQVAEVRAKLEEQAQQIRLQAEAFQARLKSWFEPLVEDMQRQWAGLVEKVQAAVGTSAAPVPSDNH
Experimental: (§1) ELISA: Antibodies designed against the heparin-binding domain of ApoE were tested for their affinity to ApoE3 and ApoEch mutant recombinant proteins using ELISA. The Ni-NTA HisSorb Plates (Qiagen) were washed 3 times with wash buffer 1 (DY008). The ApoE recombinant proteins were suspended in buffer (DY008) to give a final concentration of 0.5 μg/ml. The plates were incubated with 200 μl of ApoE recombinant proteins for 2 hours, and washed 5 times with 1x wash buffer (DY008). The plates were then incubated with antibodies at a serial dilution of from 1:1,000 to 1:32,000 for overnight at 4° C. The plate was then washed 5 times in 1X wash buffer (DY008), and incubated with anti-mouse HRP (Abcam; ab97046, 1:10,000) for 45 minutes, followed by 5 washes in 1x wash buffer to ensure complete removal of unbound secondary antibody. The sulfuric acid from the ELISA reagent kit (DY008) was warmed to 37° C. 100 μl of tetramethylbenzidine (Millipore) was added to initiate the detection phase of the reaction. After a 5-min incubation, sulfuric acid was added to terminate the reaction. The plate was then read using Synery 2 microplate reader (BioTek Instrument. Inc) and the Gen5 version1.11 software).
(§2) To generate monoclonal antibodies against the heparin-binding domain of ApoE, mice were immunized using the wild type ApoE peptide: KLH-[…]-CONH₂ (SEQ ID NO:54), and the ApoEch peptide: KLH-[…]-CONH₂ (SEQ ID NO:55). A cysteine residue was added at the N-terminus to facilitate conjugation of the peptides. Cell fusions were obtained from positive clones and cell supernatants tested for activity against the wild type and mutant peptides and proteins. Seven antibodies generated were analyzed by ELISA as examples, as described in the materials and methods section.

[6] = target: T2, full-length ApoE3ch (ApoE3 Christchurch R136S) mutant recombinant protein (His-tagged) (human, UniProt P02649 19-317); test: as above
T2 construct: also called ApoE3ch full length protein; APOE3ch Mutant; not shown: histidine tag
Experimental: as §1, §2

[7] = target: T3, ApoEch peptide KLH-CTEELRVSLASHLRK-CONH2 (human, not fully specified; C-terminal amide (CONH2); printed with KLH on the added N-terminal cysteine); test: ELISA of the monoclonal antibody purified from cloned hybridoma, O.D. 450 nm against antibody concentration (ng/mL, log axis)
T3 construct: also called Mut peptide; mutant ApoE peptide
T3 peptide: CTEELRVSLASHLRK

[8] = target: T4, C-terminal wild type ApoE3 recombinant protein (human, UniProt P02649 143-317, limits assumed); test: ELISA, His-tagged ApoE protein on Ni-NTA plate, antibody diluted 1:1000 to 1:32000, absorbance 450 nm against dilution factor
T4 construct: also called C-terminal form of wild type ApoE3; c-terminus of the APOE3WT protein; not shown: histidine tag
Experimental: Antibodies designed against the heparin binding domain of APOE were tested for affinity to APOE3 and APOEch mutant recombinant protein using an ELISA. The Ni-NTA HisSorb Plates (Qiagen) plates were washed 3 times with wash buffer 1 (DY008), the APOE recombinant proteins were suspended in buffer (DY008) to give a final concentration of 0.5 μg/ml. The plates were incubated with 200 μl for 2 hours. The plate was then washed 5 times with 1x wash buffer (DY008), the plates were then incubated with antibodies in a serial dilution series from 1:1000 to 1:32000 and incubated overnight at 4° C. The plate is then washed 5 times in 1X wash buffer (DY008). The plates were then incubated with Anti-mouse HRP (Abcam; ab97046) (1:10000) for 45 minutes. The plate was then washed 5 times in 1x wash buffer to ensure complete removal of unbound secondary antibody. The Sulfuric acid from the ELISA reagent kit (DY008) was warmed to 37° C. prior to addition of 100 μl of tetramethylbenzidine (Millipore) initiating the detection phase of the reaction. […] The plate was then read using Synery 2 microplate reader (BioTek Instrument. Inc) and the Gen5 version1.11 software).
The 19G10-2 antibody was further evaluated using Heparin-Affinity chromatography, Western Blotting, Quantitative ELISA for chromatography fractions, and ELISA for binding analyses. […]

[9] = target: T5, bovine serum albumin (BSA) (bovine, UniProt P02769 25-607); test: ELISA, BSA as control coat, antibody diluted 1:1000 to 1:32000, absorbance 450 nm; x axis counts the dilution factor
Experimental: as §1, with “100 μl of tetramethylbenzidine (Millipore) was added to initiate the detection phase of the reaction. After a 5-min incubation, sulfuric acid was added to terminate the reaction.” left out
To generate monoclonal antibodies against the heparin-binding domain of ApoE, mice were immunized using the wild type ApoE peptide: KLH-[…]-CONH₂ (SEQ ID NO:54), and the ApoEch peptide: KLH-[…]-CONH₂ (SEQ ID NO:55). […] Seven antibodies generated were analyzed by ELISA as examples, as described in the materials and methods section.

[10] = target: T3, ApoEch peptide KLH-CTEELRVSLASHLRK-CONH2; test: ELISA of the monoclonal antibody purified from cloned hybridoma, O.D. 450 nm against antibody concentration (ng/mL, log axis)
[11] = target: T2, full-length ApoE3ch (ApoE3 Christchurch …); test: ELISA, parental hybridoma clone
[12] = target: T6, full-length wild type human ApoE3 recombinant protein (His-tagged) (human, UniProt P02649 19-317); test: ELISA, parental hybridoma clone
T6 construct: Recombinant protein from Innovagen; also called ApoE3 WT full-length protein; APOE3 WT; not shown: histidine tag

[13] = target: T7, wild type ApoE peptide KLH-CTEELRVRLASHLRK-CONH2 (human, not fully specified; C-terminal amide (CONH2); printed with KLH on the added N-terminal cysteine); test: ELISA, parental hybridoma clone
T7 construct: also called WT peptide; ApoE3 WT peptide
T7 peptide: CTEELRVRLASHLRK

[14] = target: T3, ApoEch peptide KLH-CTEELRVSLASHLRK-CONH2; test: ELISA, parental hybridoma clone
[15] = target: T2, full-length ApoE3ch (ApoE3 Christchurch …); test: ELISA subclones analysis, 7C11-1 serum on mutant protein, O.D. 450 nm against dilution factor
[16] = target: T5, bovine serum albumin (BSA); test: ELISA, BSA as control coat, antibody diluted 1:1000 to 1:32000, absorbance 450 nm; x axis counts the dilution factor; remark: listed apart in the source

T5 sequence (P02769 25-607 limits assumed): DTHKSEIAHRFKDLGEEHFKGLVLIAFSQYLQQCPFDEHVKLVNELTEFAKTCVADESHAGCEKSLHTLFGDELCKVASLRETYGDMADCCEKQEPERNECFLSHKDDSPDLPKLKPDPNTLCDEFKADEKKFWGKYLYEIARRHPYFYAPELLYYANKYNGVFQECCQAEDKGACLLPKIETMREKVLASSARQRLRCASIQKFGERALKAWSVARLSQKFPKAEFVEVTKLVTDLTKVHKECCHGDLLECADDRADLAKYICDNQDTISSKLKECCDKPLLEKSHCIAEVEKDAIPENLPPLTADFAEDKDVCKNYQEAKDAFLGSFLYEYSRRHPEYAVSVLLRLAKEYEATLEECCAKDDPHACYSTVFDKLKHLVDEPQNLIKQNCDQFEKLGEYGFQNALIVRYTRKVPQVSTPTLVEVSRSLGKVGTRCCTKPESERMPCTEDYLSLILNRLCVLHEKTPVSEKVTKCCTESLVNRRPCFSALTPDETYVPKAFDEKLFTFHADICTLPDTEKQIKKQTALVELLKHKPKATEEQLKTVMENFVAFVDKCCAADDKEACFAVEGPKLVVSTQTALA

absorbance (ELISA) [1]: 0.068 absorbance | absorbance (ELISA) [2]: 0.048 absorbance | absorbance (ELISA) [3]: 0.051 absorbance | absorbance (ELISA) [4]: 0.056 absorbance
Molecule: Neg. ctrl (Table 6)

binding result [5]: binds | binding result [6]: binds | binding result [7]: binds | binding result [8]: no binding (tested: 1:1000 dilution) | binding result [9]: no binding (tested: 1:1000 dilution)
B1: antibody 19G10-2 (antibody, V domains shown)
VH: EVQLQQSGAELVRPGALVKLSCKASGFNIKDYHMHWVKERPEQGLEWIGWIDPENGNTMYDPKFQGKASITADTSSNTAYLQLSSLTSEDTAVYYCVRGTARASFDYWGQGTTLTVSS
VL: DIVLTQSPASLAVSLGQRATISCKASQSVDYDGDSYMNWYQQKSGQPPKLLIYAASNLESGIPARFSGSGSGTDFTLNIHPVEEEDAATYYCQQSNVDPWTFGGGTKLEIK
notes: Tested as serum, as hybridoma supernatant and as purified monoclonal; also called 19G10-2 antibody serum; monoclonal antibody hybridoma supernatant 19G10-2

binding result [5]: binds | binding result [6]: binds | binding result [10]: binds | binding result [9]: no binding (tested: 1:1000 dilution)
B2: antibody 25F1-2 (antibody, V domains shown)
VH: B1 VH with L20W, M34I, E39Q, E46D, N55I, G56D, N57K, M59L, S69R, V97A
VL: B1 VL with S35T, S44P, A54T, E85V, V97E
notes: also called 25F1-2 antibody serum; monoclonal antibody hybridoma supernatant 25F1-2

absorbance (ELISA) [11]: 0.055 absorbance | absorbance (ELISA) [12]: 0.689 absorbance | absorbance (ELISA) [13]: 1.28 absorbance | absorbance (ELISA) [14]: 0.058 absorbance | binding result [15]: no binding (tested: 1:10 dilution)
B3: antibody 7C11-1 (antibody, V domains shown)
VH: EVKLVESGGGLVQPGGSLKLSCAASGFTFSRYTMSWVRQTPEKRLEWVAKIRNVGGITYYPDTVKGRFTISRDNAKNTLYLQMSSLKSEDTAMYYCARHYYGSEDYFDYWGQGTTLTVSS
VL: B1 VL with I2N, S44P, L50V, L51F, D74N, V97E
notes: The limits without signal peptide (20-139, 21-131) come from CLM-00005; also called 7C11-1 serum

binding result [16]: no binding (tested: 1:1000 dilution)
B4: mouse antibody 1343ab (antibody, mouse IgG1, kappa, V domains shown)
VH: EVQLQQSGAELVRPGALVKLSCKASGFNIKDYHLHWVKQRPEQGLEWIGWIDPENGNVIYDPKFQGKATMTVVTSSNTAYLQLRSLTSEDTAVYFCTRGTARASFDYWGQGTSLTVSS
VL: DIVLTQSPASLAVSLGQRATISCKASQSVDYDGENYMNWYQQKPGQSPKLLIYVASNLESGIPARFSGSGSGTDFTLNIHPVEEEDAATYYCQQSNLDPWTFGGGTKLEIKR
modifications: N-linked glycosylation detected on heavy chain constant region N at 292; loss of C-terminal lysine observed
notes: also called 23B2
